The target in the assay is T1, human Granzyme B (human, UniProt P10144 21-247).
T1 construct: Captured on a Series S Streptavidin chip for SPR; also called hGranzyme B; GzmB
Put plainly: SPR, Biacore 8k+, hGranzyme B captured on SA chip, single cycle kinetics, 1:1 model. Background: Surface plasmon resonance follows binding to a sensor surface in real time, without labels.

Bridge positions count the residues as written; N and C are the ends. Square brackets hold non-standard residues; d marks the D form. NOTA‑1 = 1,4,7-triazacyclononane-N,N',N''-triacetic acid phenyl thiourea; Pro(cis-4-Ph) = O=C(O)[C@@H]1C[C@H](c2ccccc2)CN1; Trp(5-F) = N[C@@H](Cc1c[nH]c2ccc(F)cc12)C(=O)O; Pro(trans-4-F) = O=C(O)[C@@H]1C[C@@H](F)CN1; Phe(4-F) = N[C@@H](Cc1ccc(F)cc1)C(=O)O; Phe(4-Me) = Cc1ccc(C[C@H](N)C(=O)O)cc1; Tic = O=C(O)[C@@H]1Cc2ccccc2CN1; Pip = O=C(O)[C@@H]1CCCCN1; Aze = O=C(O)[C@@H]1CCN1

T1 sequence (P10144 21-247 limits assumed): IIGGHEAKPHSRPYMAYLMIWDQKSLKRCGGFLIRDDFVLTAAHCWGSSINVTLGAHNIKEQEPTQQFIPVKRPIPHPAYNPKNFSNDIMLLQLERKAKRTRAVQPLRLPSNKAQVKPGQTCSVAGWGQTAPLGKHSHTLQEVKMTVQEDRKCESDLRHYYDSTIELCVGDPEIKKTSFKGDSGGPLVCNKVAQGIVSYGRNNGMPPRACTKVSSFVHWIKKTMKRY

B1: Compound 49a (peptide)
peptide: {CH2CO}-FNFEDQSPDTWQ[Pro(trans-4-F)]CG-NH2
modifications: thioether N-14
The Kd is the constant that tells how readily two partners part at equilibrium. A high value points to lower affinity. On to B1, for which binding was characterised by a dissociation constant (Kd) of 4.5 nM.

B2: Compound 75a (peptide)
peptide: {CH2CO}-FNFEDQS[Aze]DTWQPCG-NH2
modifications: thioether N-14
In turn, B2 registered a Kd of 28.3 nM.

B3: Compound 47a (peptide)
peptide: {CH2CO}-FNFEDQSPDT[Trp(5-F)]QPCG-NH2
modifications: thioether N-14
Turning to B3, the Kd was 4.1 nM.

B4: Compound 76a (peptide)
peptide: {CH2CO}-FNFEDQS[Pip]DTWQPCG-NH2
modifications: thioether N-14
Take B4: the Kd was 28.6 nM.

B5: Compound 43a (peptide)
peptide: {CH2CO}-[Phe(4-Me)]NFEDQSPDTWQPCG-NH2
modifications: thioether N-14
Take B5: binding was put at a Kd of 3.1 nM.

B6: Compound 13a (peptide)
peptide: {CH2CO}-FNFEDQSPDTWQPCGGK(NOTA‑1)-NH2
modifications: thioether N-14
B6: the Kd stood at 4.4 nM.

B7: Compound 64a (peptide)
peptide: {CH2CO}-FNFEDQS[Tic]DTWQPCG-NH2
modifications: thioether N-14
SMILES: C[C@@H](O)[C@@H]1NC(=O)[C@H](CC(=O)O)NC(=O)[C@@H]2Cc3ccccc3CN2C(=O)[C@H](CO)NC(=O)[C@H](CCC(N)=O)NC(=O)[C@H](CC(=O)O)NC(=O)[C@H](CCC(=O)O)NC(=O)[C@H](Cc2ccccc2)NC(=O)[C@H](CC(N)=O)NC(=O)[C@H](Cc2ccccc2)NC(=O)CSC[C@@H](C(=O)NCC(N)=O)NC(=O)[C@@H]2CCCN2C(=O)[C@H](CCC(N)=O)NC(=O)[C@H](Cc2c[nH]c3ccccc23)NC1=O
Consider B7, for which the affinity, expressed as Kd, was 8.1 nM.

B8: Compound 54a (peptide)
peptide: {CH2CO}-[Phe(4-F)]NFEDQSPDTWQPCG-NH2
modifications: thioether N-14
SMILES: C[C@@H](O)[C@@H]1NC(=O)[C@H](CC(=O)O)NC(=O)[C@@H]2CCCN2C(=O)[C@H](CO)NC(=O)[C@H](CCC(N)=O)NC(=O)[C@H](CC(=O)O)NC(=O)[C@H](CCC(=O)O)NC(=O)[C@H](Cc2ccccc2)NC(=O)[C@H](CC(N)=O)NC(=O)[C@H](Cc2ccc(F)cc2)NC(=O)CSC[C@@H](C(=O)NCC(N)=O)NC(=O)[C@@H]2CCCN2C(=O)[C@H](CCC(N)=O)NC(=O)[C@H](Cc2c[nH]c3ccccc23)NC1=O
Consider B8, for which the affinity, expressed as Kd, was 4.9 nM.

B9: Compound 23a (peptide)
peptide: {CH2CO}-FNFEDQSVDTWQPCGGK-NH2
modifications: thioether N-14
SMILES: CC(C)[C@@H]1NC(=O)[C@H](CO)NC(=O)[C@H](CCC(N)=O)NC(=O)[C@H](CC(=O)O)NC(=O)[C@H](CCC(=O)O)NC(=O)[C@H](Cc2ccccc2)NC(=O)[C@H](CC(N)=O)NC(=O)[C@H](Cc2ccccc2)NC(=O)CSC[C@@H](C(=O)NCC(=O)NCC(=O)N[C@@H](CCCCN)C(N)=O)NC(=O)[C@@H]2CCCN2C(=O)[C@H](CCC(N)=O)NC(=O)[C@H](Cc2c[nH]c3ccccc23)NC(=O)[C@H]([C@@H](C)O)NC(=O)[C@H](CC(=O)O)NC1=O
Consider B9, for which the dissociation constant Kd was 27.5 nM.

B10: Compound 61a (peptide)
peptide: {CH2CO}-FNFEDQAPDTWQPCGGK-NH2
modifications: thioether N-14
SMILES: C[C@@H]1NC(=O)[C@H](CCC(N)=O)NC(=O)[C@H](CC(=O)O)NC(=O)[C@H](CCC(=O)O)NC(=O)[C@H](Cc2ccccc2)NC(=O)[C@H](CC(N)=O)NC(=O)[C@H](Cc2ccccc2)NC(=O)CSC[C@@H](C(=O)NCC(=O)NCC(=O)N[C@@H](CCCCN)C(N)=O)NC(=O)[C@@H]2CCCN2C(=O)[C@H](CCC(N)=O)NC(=O)[C@H](Cc2c[nH]c3ccccc23)NC(=O)[C@H]([C@@H](C)O)NC(=O)[C@H](CC(=O)O)NC(=O)[C@@H]2CCCN2C1=O
The molecule B10 showed a Kd of 6.3 nM.

B11: Compound 26a (peptide)
peptide: {CH2CO}-FNFEDQSADTWQPCGGK-NH2
modifications: thioether N-14
notes: also called 2b
As for B11, the Kd was 15.4 nM.

B12: Compound 71a (peptide)
peptide: {CH2CO}-FNFEDQSPDTWQ[Pip]CG-NH2
modifications: thioether N-14
notes: also called 71aa
B12 returned a Kd of 19.6 nM.

B13: Compound 50a (peptide)
peptide: {CH2CO}-FNFEDQSPDTWQ[Pro(cis-4-Ph)]CG-NH2
modifications: thioether N-14
As for B13, the Kd was 4.6 nM.
